In test [1] the target is T1, BSA (UniProt P02769 25-607).
T1 construct: Control protein coated on the plate
Briefly: ELISA, BSA coated at 5 ug/mL, FHR1 detected with polyclonal FHR1 antibody. (In general: ELISA stands for enzyme-linked immunosorbent assay.)

The target in test [2] is T2, Serum-derived FHR1 (FHR1 from normal human serum, NHS) (human, UniProt Q03591 19-330).
T2 construct: mature; The background text says serum FHR1 circulates as homodimers and as heterodimers with FHR2; also called FHR1 from NHS
T2 sequence (looked up): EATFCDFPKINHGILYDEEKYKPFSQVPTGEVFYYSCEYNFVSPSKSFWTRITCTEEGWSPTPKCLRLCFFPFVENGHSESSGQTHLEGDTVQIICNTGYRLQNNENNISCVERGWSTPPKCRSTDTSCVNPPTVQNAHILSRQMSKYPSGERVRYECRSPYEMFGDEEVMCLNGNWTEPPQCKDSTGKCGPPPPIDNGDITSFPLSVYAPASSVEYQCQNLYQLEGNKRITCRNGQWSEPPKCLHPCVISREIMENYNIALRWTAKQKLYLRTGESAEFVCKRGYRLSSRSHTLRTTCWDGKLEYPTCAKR
As to the kind of experiment: ELISA, FHR1 SCR1-2 immobilized, 5% NHS, detection with mAb C18.

Test [3] has as its target T3, Recombinant FHR2, expressed in Pichia pastoris (human, UniProt P36980 19-270).
T3 construct: also called CFHR2
T3 sequence (looked up): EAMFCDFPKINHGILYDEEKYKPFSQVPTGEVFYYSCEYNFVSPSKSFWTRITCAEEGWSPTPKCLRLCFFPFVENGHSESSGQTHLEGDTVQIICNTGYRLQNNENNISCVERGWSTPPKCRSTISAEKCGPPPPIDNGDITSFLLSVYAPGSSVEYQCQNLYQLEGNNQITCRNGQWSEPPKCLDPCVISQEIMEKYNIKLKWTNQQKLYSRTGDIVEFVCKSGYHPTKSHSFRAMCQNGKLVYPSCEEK
Briefly: competition ELISA, FHR2 at 0-15 ug/mL against serum FHR1 on immobilized FHR1 SCR1-2.

We go through two molecules from patent publication EP3837551B1 (Medizinische Hochschule Hannover, dated 2024).

T1 sequence (P02769 25-607 limits assumed): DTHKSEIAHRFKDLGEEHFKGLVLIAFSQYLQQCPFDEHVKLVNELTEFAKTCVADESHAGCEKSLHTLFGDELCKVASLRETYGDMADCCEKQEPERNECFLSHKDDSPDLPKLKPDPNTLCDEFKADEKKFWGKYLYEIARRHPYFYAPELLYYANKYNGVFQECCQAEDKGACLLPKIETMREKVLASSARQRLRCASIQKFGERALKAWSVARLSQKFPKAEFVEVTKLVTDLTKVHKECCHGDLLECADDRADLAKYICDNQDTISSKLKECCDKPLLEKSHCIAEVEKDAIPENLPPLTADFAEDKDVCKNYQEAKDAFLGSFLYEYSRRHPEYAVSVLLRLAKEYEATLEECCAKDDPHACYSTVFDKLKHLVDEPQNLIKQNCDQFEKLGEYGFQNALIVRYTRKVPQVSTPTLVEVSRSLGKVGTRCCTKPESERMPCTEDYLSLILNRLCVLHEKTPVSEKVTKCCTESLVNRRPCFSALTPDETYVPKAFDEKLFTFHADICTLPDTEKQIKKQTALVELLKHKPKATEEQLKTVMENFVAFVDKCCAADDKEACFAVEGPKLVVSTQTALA

B1: Recombinant factor H related protein 1 (FHR1), expressed in Pichia pastoris (other, human, UniProt Q03591 19-330, looked up)
chain: EATFCDFPKINHGILYDEEKYKPFSQVPTGEVFYYSCEYNFVSPSKSFWTRITCTEEGWSPTPKCLRLCFFPFVENGHSESSGQTHLEGDTVQIICNTGYRLQNNENNISCVERGWSTPPKCRSTDTSCVNPPTVQNAHILSRQMSKYPSGERVRYECRSPYEMFGDEEVMCLNGNWTEPPQCKDSTGKCGPPPPIDNGDITSFPLSVYAPASSVEYQCQNLYQLEGNKRITCRNGQWSEPPKCLHPCVISREIMENYNIALRWTAKQKLYLRTGESAEFVCKRGYRLSSRSHTLRTTCWDGKLEYPTCAKR
notes: also called CFHR1; Complement Factor H-Related Protein 1
For the molecule B1, the binding result in test [1] is “no binding (tested: 30 ug/mL FHR1)”.

B2: Recombinant FHR1 SCR1-2 (N-terminal fragment of FHR1) (other, human, UniProt Q03591 19-142, looked up)
chain: EATFCDFPKINHGILYDEEKYKPFSQVPTGEVFYYSCEYNFVSPSKSFWTRITCTEEGWSPTPKCLRLCFFPFVENGHSESSGQTHLEGDTVQIICNTGYRLQNNENNISCVERGWSTPPKCRS
notes: domain: SCR1-2; Expressed in P. pastoris; also called SCR1-2 of FHR1
Turning to B2, the binding result in test [2] and in test [3] was “binds” each time.
